{"source": "paper PMC9595563", "target": "SARS-CoV-2 spike protein (Wuhan-Hu-1) with C-terminal histidine, coated in the ELISA of Fig 2C (SARS-CoV-2) (UniProt P0DTC2)", "experiment": "ELISA", "data": [{"substance": "LRRC15-Fc (from UniProt Q8TF66) (Fc fusion)", "values": [{"measurement": "Kd", "result": 109, "unit": "nM"}]}]}
